What was measured:
[1] = substrate: Nc1ncnc2c1ncn2[C@@H]1O[C@H](COP(=O)(O)OP(=O)(O)OP(=O)(O)O)[C@@H](O)[C@H]1O; assay: ATP hydrolysis by Cet1(201-549)p; assay type: biochemical, Saccharomyces cerevisiae; conditions: other: ATP hydrolysis by the truncated enzyme; pH 7.0; 30.0 °C
Protocol: (FIG. 8A) Protein titration. Reaction mixtures (10 μl) containing 50 mM Tris HCl (pH 7.0), 5 mM DTT, 2 mM MnCl2, 1 mM [γ^32 P]ATP, and either Cet1p, Cet1(201-549)p, or Cet1(246-549)p were incubated for 15 min at 30° C. Pi release is plotted as a function of input protein. (FIG. 8B) Kinetics. Reaction mixtures (100 μl) containing 50 mM Tris HCl (pH 7.0), 5 mM DTT, 2 mM MnCl2, 1 mM [γ^32 P]ATP, and either 8, 16, or 32 nM Cet1p were incubated at 30° C. Aliquots (10 μl ) were withdrawn at the times indicated and quenched immediately by the addition of […] of 5 M formic acid. Pi release is plotted as a function of time. (FIG. 8C) Hydrolysis of [α^32 P]ATP. Reaction mixtures (100 μl) containing 50 mM Tris HCl (pH 7.0), 5 mM DTT, 2 mM MnCl2, 1 mM [α^32 P]ATP, and 100 ng of Cet1p were incubated at 30° C. Aliquots (10 μl) were withdrawn at the times indicated and quenched with formic acid. The products were analyzed by TLC. The levels of [α^32 P]ADP (o) and [α^32 P]AMP (q) are plotted as a function of time. An otherwise identical reaction containing 1 mM [γ^32 P]ATP was analyzed in parallel; Pi release (.cndot.). (FIG. 8D) ATP-dependence. Reaction mixtures (20 μl) containing 50 mM Tris HCl (pH 7.0), 5 mM DTT, 2 mM MnC2, 40 pg of Cet1p, and [γ^32 P]ATP as indicated were incubated for 15 min at 30° C. Pi release is plotted as a function of ATP concentration. […]

[2] = substrate: Nc1ncnc2c1ncn2[C@@H]1O[C@H](COP(=O)(O)OP(=O)(O)OP(=O)(O)O)[C@@H](O)[C@H]1O; assay: ATP hydrolysis by Cet1p, manganese-dependent; assay type: biochemical, Saccharomyces cerevisiae; conditions: other: 2 mM MnCl2, pH 7.0, 30° C., double-reciprocal plot
Protocol: (FIG. 8A) Protein titration. Reaction mixtures (10 μl) containing 50 mM Tris HCl (pH 7.0), 5 mM DTT, 2 mM MnCl2, 1 mM [γ^32 P]ATP, and either Cet1p, Cet1(201-549)p, or Cet1(246-549)p were incubated for 15 min at 30° C. Pi release is plotted as a function of input protein. (FIG. 8B) Kinetics. Reaction mixtures (100 μl) containing 50 mM Tris HCl (pH 7.0), 5 mM DTT, 2 mM MnCl2, 1 mM [γ^32 P]ATP, and either 8, 16, or 32 nM Cet1p were incubated at 30° C. Aliquots (10 μl ) were withdrawn at the times indicated and quenched immediately by the addition of […] of 5 M formic acid. Pi release is plotted as a function of time. (FIG. 8C) Hydrolysis of [α^32 P]ATP. […] The products were analyzed by TLC. […] An otherwise identical reaction containing 1 mM [γ^32 P]ATP was analyzed in parallel; Pi release (.cndot.). […]
The extent of ^32 Pi release from [γ^32 P]ATP during a 15 min reaction was proportional to the amount of input Cet1p protein (FIG. 8A). ^32 Pi accumulated with time over 30 min; the rate of reaction varied linearly with Cet1p concentration (FIG. 8B). From a plot of initial rate versus enzyme concentration, a turnover number of 25 s^-1 was calculated. Cet1p catalyzed the quantitative conversion of [α^32P]ATP to [α^32 P]ADP. […] No formation of [α^32 P]AMP from [α^32 P]ATP was detected, even after 20-45 min of incubation, by which time all of the nucleotide had been converted to ADP. […]

Protein | Km [1] [µM] | Km [2] [µM]
Cet1(201-549)p (Saccharomyces cerevisiae S288C) (protein, The kinetic parameters determined for ATP hydrolysis by Cet1(201-549)p; His-tag; made in house; host or cells: Escherichia coli BL21(DE3)) ANAAVDNIFEEKATLQSKKNNIKRDLEVLNEISASSKPSKYRNVPIWAQKWKPTIKALQSINVKDLKIDPSFLNIIPDDDLTKSVQDWVYATIYSIAPELRSFIELEMKFGVIIDAKGPDRVNPPVSSQCVFTELDAHLTPNIDASLFKELSKYIRGISEVTENTGKFSIIESQTRDSVYRVGLSTQRPRFLRMSTDIKTGRVGQFIEKRHVAQLLLYSPKDSYDVKISLNLELPVPDNDPPEKYKSQSPISERTKDRVSYIHNDSCTRIDITKVENHNQNSKSRQSETTHEVELEINTPALLNAFDNITNDSKEYASLIRTFLNNGTIIRRKLSSLSYEIFEGSKKVM | 3.3 | 
Cet1p (Saccharomyces cerevisiae S288C) (protein, the two truncated proteins were as active as full-length Cet1p in hydrolyzing ATP; His-tag; made in house; host or cells: Escherichia coli BL21(DE3)) MSYTDNPPQTKRALSLDDLVNHDENEKVKLQKLSEAANGSRPFAENLESDINQTETGQAAPIDNYKESTGHGSHSQKPKSRKSSNDDEETDTDDEMGASGEINFDSEMDFDYDKQHRNLLSNGSPPMNDGSDANAKLEKPSDDSIHQNSKSDEEQRIPKQGNEGNIASNYITQVPLQKQKQTEKKIAGNAVGSVVKKEEEANAAVDNIFEEKATLQSKKNNIKRDLEVLNEISASSKPSKYRNVPIWAQKWKPTIKALQSINVKDLKIDPSFLNIIPDDDLTKSVQDWVYATIYSIAPELRSFIELEMKFGVIIDAKGPDRVNPPVSSQCVFTELDAHLTPNIDASLFKELSKYIRGISEVTENTGKFSIIESQTRDSVYRVGLSTQRPRFLRMSTDIKTGRVGQFIEKRHVAQLLLYSPKDSYDVKISLNLELPVPDNDPPEKYKSQSPISERTKDRVSYIHNDSCTRIDITKVENHNQNSKSRQSETTHEVELEINTPALLNAFDNITNDSKEYASLIRTFLNNGTIIRRKLSSLSYEIFEGSKKVM |  | 2.8

From patent publication US6232070A, “Pharmacological targeting of mRNA cap formation” (priority 1999, dated 2001)
